The values that follow come from patent publication US20200000932A1.

This assay has as its target bovine submaxillary mucin (BSM) (bovine). Description: BSM ELISA on BSM-coated wells, periodate-sensitive signal (periodate-treated wells subtracted).

B1: hSIA101 (antibody, human IgG1, kappa, V domains shown)
VH: EVQLVQSGAEVKKPGASVKVSCKASGYTFTDHAIHWVRQAPGQGLEWMGYFSPGNDDIKYNEKFRGRVTMTADKSSSTAYMELRSLRSDDTAVYFCKRSLSTPYWGQGTLVTVSS
VL: DIVMTQSPDSLAVSLGERATINCKSSQSLLNRGNHKNYLTWYQQKPGQPPKLLIYWASTRESGVPDRFSGSGSGTDFTLTISSLQAEDVAVYYCQNDYTYPYTFGQGTKVEIKR
B1: the EC50 came to 4.2 nM.

B2: hSIA103 (antibody, human IgG1, kappa, V domains shown)
VH: QVQLVQSGAEVKKPGASVKVSCKASGYTFTDHAIHWVRQAPGQGLEWMGYISPGNGDIKYNEKFKDRVTMTADKSSSTAYMQLRSLRSDDTAVYFCKRSLLALDYWGQGTLVTVSS
VL: DIQMTQSPSSLSASVGDRVTITCKASQDVGTNIAWYQQKPGKAPKVLIYSASTRHTGVPSRFSGSGSGTDFTLTISSLQPEDFATYFCQQYSSFPLTFGQGTKVEIKR
Consider B2, for which the EC50 turned out to be 1.8 nM.
